Measured values: the supplement of paper PMC12042874
± gives the uncertainty stated by the source.

Assay: amyloid nucleation score (Sup35N fusion, yeast selection) (log enrichment); library NNK2; higher = more nucleation; inactive = no reads after selection
Method in brief: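 After 24 hours of induction with 100 μM copper sulfate, psi-negative yeast expressing peptides of 20 random codons fused to Sup35N were grown for 7 days at 30°C on medium lacking adenine and uracil. Input and output plasmid inserts were sequenced with Illumina, and sequences with under 100 input reads were discarded. Scores for nucleation are the DiMSum log enrichment of output over input reads, centred on the mode score of non-aggregating sequences.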

Substance	amyloid nucleation score
PWSSHCSCVFNNKDLILGNT	-0.21 ± 0.79
PWVNRCKELCMFVLGVDRGG	-0.588 ± 1.1
PYALWGIRESHLFQKCWSGM	3.33 ± 0.099
PYELCDRTVRMSFWVTVWGH	0.281 ± 0.49
PYQLRVSLTLMLISGSLDIY	0.47 ± 0.5
QCGMIMRSSLKSGATCFLDS	0.124 ± 0.61
QCLHSWDWLKSWFVFVGRGE	3.88 ± 0.066
QCLYWV	inactive
QCMTKKLEISQY	-0.492 ± 1
QDVFCLSGLNSHCK	-1.45 ± 0.78
QENFCEYFFDRSITSWWR	inactive
QFARGPSGSIMEQVLIDGDV	0.277 ± 0.64
QFASISICYKSSIPNDCNDV	1.12 ± 0.2
QFNKIDWMHKMFTSSRVNMS	-0.166 ± 0.31
QFSCRCN	0.011 ± 0.79
QFSLLDHITCQPLPTLFLS	7.91 ± 0.065
QFSLMRAIFMWASPRSWLLD	inactive
QFWVPTLEAWSWTSAFPYMP	-0.536 ± 1.1
QGYAYMCTGSFFFSLLQVLS	3.79 ± 0.1
QIDLL	-1.36 ± 1.1
QIYCVSPLSRHWYFARYGVT	0.78 ± 0.32
QKGHSRLQPWSLSPYVYRPL	0.556 ± 0.42
QLCAMKMDSRIFCVSCFTML	7.049 ± 0.056
QLCLLCFLYMC	3.16 ± 0.16
QLESRRDDHRVHESADGSA	0.466 ± 0.33

Substance	amyloid nucleation score
QLFFRYYCEAGDVCIFGHIA	3.32 ± 0.099
QLFMNPDWNKRHYNELYSSG	inactive
QLFVMADNVRESSKTLRTIW	-0.513 ± 0.35
QLGIGFFGRKWDGHL	2.79 ± 0.16
QLGLLFFGTVLM	1.87 ± 0.14
QLNFYNQTQCVLGEVTTLN	-0.476 ± 0.36
QLTQYQSKTRTMCRKQERTV	1.88 ± 0.43
QLYKRSE	0.256 ± 0.27
QMGCWLGLLVDSLYLSWLVT	-0.2 ± 0.43
QMIFGYQHRAALDIMNGVPD	inactive
QMMLLTV	-0.214 ± 1.1
QMYATSFNIDCVLFLSLFEM	6.27 ± 0.07
QNESHIH	6.31 ± 0.079
QNLCDCCKYQICSVLFMGHA	4.33 ± 0.082
QNNKILFWQ	0.039 ± 0.31
QRARTRYGLRSLSYSAYIWS	0.807 ± 0.17
QRFRHRKTQISVFS	-0.876 ± 1.1
QSFFLN	inactive
QSIRFVFLPYELGTYHGDEG	-0.241 ± 0.24
QSPSIRTCTYYGTYRRLKKG	inactive
QSYRVPKLFMNAAE	0.197 ± 0.57
QTDMII	inactive
QTRTQEFFRSFNKVFTQ	2.59 ± 0.061
QTSYMDYKYRMGFLS	-0.69 ± 0.63
QTYIFFICLVVGMYIVCGKH	-0.17 ± 0.45

Substance	amyloid nucleation score
QTYMPTFCYITFLECWSDKG	7.685 ± 0.035
QVAIPHHTRIETASARRVHT	1.09 ± 0.51
QVGRSSQCEDTVVFIRVRLW	3.77 ± 0.066
QVYCQAVNYKENRVYFMGVP	5.2 ± 0.054
QVYLS	-1.17 ± 0.62
QWQGQHLT	-1.4 ± 1
QWSVINRTS	1.54 ± 0.31
QWVDQVYIAETIVPLSNKVV	-0.398 ± 1
QYGCMEYRHNKCNQREVCRY	0.281 ± 0.5
QYMLLMMC	0.671 ± 0.6
QYMYLYIKRMMYSSTKKF	inactive
RAANYCGLKQAWSGFKRCVA	0.496 ± 0.36
RADSIFDTI	-0.721 ± 0.61
RADTRDSGVVEACKGWSHEE	0.451 ± 0.34
RAMVPHHNADGCGLLQDTQ	1.14 ± 0.38
RAMYECF	0.604 ± 0.41
RARLKTMRPGSCSRARGWCG	0.883 ± 0.33
RASARLVCTFYVLTERG	4.17 ± 0.064
RAVEMVYCKLRMSQDGHLRW	5.482 ± 0.048
RAWCYTGMRGDMESW	-0.447 ± 0.41
RCAMRVSARMSRSTGISRLR	1.64 ± 0.15
RCKAAGCIHLVFFVCRDACC	0.605 ± 0.66
RCNQLIWTASDNWYYMWTTV	1.8 ± 0.1
RCNWTSNFFQYMYKNRPNNG	inactive
RCREWYMR	-0.568 ± 0.63

Substance	amyloid nucleation score
RCSVVNWDNHVMLALDRVGY	inactive
RDAGSGREL	inactive
RDCICSVYPFAVLMGSQPLA	9.086 ± 0.063
RDCIRAVSCVIENTGPSAYE	0.049 ± 0.56
RDGYRSGYAESMVGVWFRLK	0.662 ± 0.81
RDIFILYD	inactive
RDLEPYLHIWSLIVSARV	-0.014 ± 0.65
RDLLIGDDI	-0.983 ± 0.44
RDLSTGSPILEFHRCTRISG	-0.172 ± 0.76
RDSFQCSY	-0.939 ± 0.54
RDWQYRIYVQCNR	2.17 ± 0.14
REAARRLGEKPNIAVGFDAG	0.559 ± 0.44
REGPCGELGELPVLKRRGKH	0.986 ± 0.41
RFDWRFCVVNRPGGKWLVVR	0.824 ± 0.29
RFFCLWFSWKNLGFNVKRAV	5.02 ± 0.082
RFGGSVYARGERL	-0.159 ± 0.46
RFGIGSLRSTSHVAGLMVMS	0.733 ± 0.44
RFILLFTCGKGFFMHTCSRG	3.86 ± 0.11
RFIMSRYALEGAESTLMKHN	3.53 ± 0.1
RFKWK	3.67 ± 0.11
RFQLVSAMAFTYMVAR	-0.211 ± 0.56
RFRRSVFMLMHGWRSTVFIV	1.07 ± 0.34
RFSCLSELSFLYFGSH	5.059 ± 0.034
RFSELSHK	-0.144 ± 0.26
RFVKTGYTYDLVGTVLHCLS	5.97 ± 0.054

Substance	amyloid nucleation score
RFYGVY	inactive
RFYIPLSYFMSEGDRSCKFI	-0.642 ± 0.61
RGALALLVRDAMFFCSLSGF	4.41 ± 0.1
RGANNGMCYFMTRRKWLLMV	0.813 ± 0.56
RGFCYNIT	0.305 ± 0.37
RGGSIIYHALVRVVFFLSVY	-1.01 ± 0.64
RGIKNVWNL	0.461 ± 0.54
RGLTKLSVLFRQNKESYNIV	-0.521 ± 0.76
RGMTRVVFTVMLLRLWYSQS	0.659 ± 0.21
RGMWRCHNG	1.49 ± 0.37
RGNHNHGLWNPKNSMVMWEG	0.062 ± 0.48
RGQTMNHALRAHW	0.639 ± 0.42
RGSVVLNSVWVMLDMYCLLP	1.82 ± 0.28
RGVCLNNLMWGTLGTRKALL	-0.797 ± 1
RGVDYVLSCL	-1.21 ± 0.61
RGVLYAKVL	0.808 ± 0.33
RGVVGLDSIRWPSFGAVMKF	-0.757 ± 0.48
RHDSCMCFMTDQL	-0.864 ± 0.44
RHKFAMMACVTYNGDVGVMT	1.14 ± 0.21
RHNKNRSVCSYRSKYAKKYV	-0.208 ± 0.74
RHRCSI	-0.059 ± 0.39
RIEDFF	1.19 ± 0.68
RIGDRSCSVRKEHKDAQWSI	0.196 ± 0.77
RIGLMNL	3.38 ± 0.11
RIHFGFRMMMCRDIRIFTSQ	6.06 ± 0.064

Substance	amyloid nucleation score
RIIKYIMNGRRFVVLWRVFS	5.342 ± 0.052
RIMPTLLKIPYLWYQSLSCD	-0.081 ± 0.22
RINVPDVRMDPNYQIHF	-1.02 ± 0.36
RIQWKDGYHVARRVFIGNTG	-0.449 ± 0.63
RIRCIVGSVPCMAASKHDGR	0.783 ± 0.22
RIRYGLKVCSMVDGMLGRDW	0.807 ± 0.29
RKIYV	-0.139 ± 0.55
RKQCNKFGVWDQI	0.214 ± 0.5
RLCLRDQYSFGQIVDYKCFD	inactive
RLDNIIVAERCTSLRESRFG	-0.047 ± 1.1
RLDRVIFY	1.85 ± 0.099
RLFCSAVAH	0.308 ± 0.44
RLFDRSVLPLGLWVRCKIHW	0.28 ± 0.61
RLIGLVSRVEHVYIAVKRWE	0.543 ± 0.34
RLLMGPVNSFGR	3.57 ± 0.07
RLLRQGDFGVTENRFLFRDI	-0.502 ± 0.79
RLNAMEESIKSNIYSFWSFY	inactive
RLNRSMSSHHDRRHLEWSLS	0.235 ± 0.19
RLNVISIQNAIMRVVRTKRF	3.61 ± 0.12
RLNVKDYFCYIAQESKTTDR	4.76 ± 0.083
RLRIMYSTLLATGMV	0.178 ± 0.5
RLRMSMIISLINLRLCGLML	1.03 ± 0.53
RLRTKCYFNCCNGHYLEFGG	9.489 ± 0.067
RLSLGLYINALRC	1.01 ± 0.51
RLSVLD	1.34 ± 0.21

Substance	amyloid nucleation score
RLTDLVSMVSLNPLYFMWSS	-0.08 ± 0.3
RLVPISKNRVGMNWSASLSL	0.012 ± 0.15
RLVSKEATCPR	-0.058 ± 0.54
RLYVKWSNSISDSRSLCVP	0.208 ± 0.16
RMDVSYLAFVWSHN	3.5 ± 0.056
RMLCSHINYLIVGMG	-0.061 ± 0.28
RMRCLDSVQGLNLIHTDVSV	inactive
RMVMSE	0.16 ± 0.31
RMVRGLAFGDFWASSMRKYP	0.241 ± 0.33
RMVVVVSKRY	1.73 ± 0.17
RMYLVGMLMHSLLEEMSKTA	4.76 ± 0.083
RNALDTDAAE	0.323 ± 0.55
RNFDRGWSHR	0.319 ± 0.4
RNGVLTEARHLSVSGEERRV	-0.316 ± 0.8
RNHVAHH	2.17 ± 0.21
RNSCFVLSFMGWFVHYHFRF	-0.317 ± 0.79
RNSLEFTDTRCNQPGQCESG	0.641 ± 0.4
RNVACFSAVT	-0.283 ± 0.63
RPAFTNLRQCQRAYPVGGRC	0.195 ± 0.53
RPIKRV	0.173 ± 0.2
RPISLCALYWLNLRANIHCR	0.144 ± 0.56
RPKTEDCGLNLSTVLNQVGH	0.111 ± 0.19
RPNLLSDILPRGLMAKSMHF	0.107 ± 0.79
